Literature values, collected in PMC5871670.
pKd: −log10 of the molar value.

Tests used:
[1] = molecular target: cytokeratin 1 (CK1) (Homo sapiens) (UniProt P04264); assay: surface plasmon resonance
[2] = molecular target: gC1q-R (Homo sapiens) (UniProt Q07021); assay: surface plasmon resonance
[3] = molecular target: uPAR (Homo sapiens) (UniProt Q03405); assay: surface plasmon resonance
[4] = molecular target: Factor XI (Homo sapiens) (UniProt P03951)
UniProt P03951, sequence (P03951 388-625): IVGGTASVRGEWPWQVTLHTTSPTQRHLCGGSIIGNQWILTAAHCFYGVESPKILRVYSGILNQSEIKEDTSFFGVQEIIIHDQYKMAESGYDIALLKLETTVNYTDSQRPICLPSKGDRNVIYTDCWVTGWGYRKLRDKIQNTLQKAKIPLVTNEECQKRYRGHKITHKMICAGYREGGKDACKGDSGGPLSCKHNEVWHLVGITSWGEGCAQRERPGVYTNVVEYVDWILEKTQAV

UniProt Q03405, sequence (Q03405 23-305): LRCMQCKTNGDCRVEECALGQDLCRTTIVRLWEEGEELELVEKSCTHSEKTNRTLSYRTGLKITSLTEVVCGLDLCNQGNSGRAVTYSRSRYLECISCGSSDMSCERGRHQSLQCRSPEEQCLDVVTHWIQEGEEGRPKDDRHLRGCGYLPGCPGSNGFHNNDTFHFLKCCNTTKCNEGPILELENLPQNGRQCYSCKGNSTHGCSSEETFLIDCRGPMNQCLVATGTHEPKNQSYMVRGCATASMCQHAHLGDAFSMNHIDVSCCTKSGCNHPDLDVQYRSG
UniProt Q07021, sequence (Q07021 74-282): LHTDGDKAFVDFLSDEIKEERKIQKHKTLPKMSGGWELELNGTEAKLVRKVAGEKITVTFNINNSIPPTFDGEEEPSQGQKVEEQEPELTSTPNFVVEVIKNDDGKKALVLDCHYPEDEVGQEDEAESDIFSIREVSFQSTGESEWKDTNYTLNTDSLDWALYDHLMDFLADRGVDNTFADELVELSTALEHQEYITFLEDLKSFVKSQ
UniProt P04264, sequence (P04264 2-644): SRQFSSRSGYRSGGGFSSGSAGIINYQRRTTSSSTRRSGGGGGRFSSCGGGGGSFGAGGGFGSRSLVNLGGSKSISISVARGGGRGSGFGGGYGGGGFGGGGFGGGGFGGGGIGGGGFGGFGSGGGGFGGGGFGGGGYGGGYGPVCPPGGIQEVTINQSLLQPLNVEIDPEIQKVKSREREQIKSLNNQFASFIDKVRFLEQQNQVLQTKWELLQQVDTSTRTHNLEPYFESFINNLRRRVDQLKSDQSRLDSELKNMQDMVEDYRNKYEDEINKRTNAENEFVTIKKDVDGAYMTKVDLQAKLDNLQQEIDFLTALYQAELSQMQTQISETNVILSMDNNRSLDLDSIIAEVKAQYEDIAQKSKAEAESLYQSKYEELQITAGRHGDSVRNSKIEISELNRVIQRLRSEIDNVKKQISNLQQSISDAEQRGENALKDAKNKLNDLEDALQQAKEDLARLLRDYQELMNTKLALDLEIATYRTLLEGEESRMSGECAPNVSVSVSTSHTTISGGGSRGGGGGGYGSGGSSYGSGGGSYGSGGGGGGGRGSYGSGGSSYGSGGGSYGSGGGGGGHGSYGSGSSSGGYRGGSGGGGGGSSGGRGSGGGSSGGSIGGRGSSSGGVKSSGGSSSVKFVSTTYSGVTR

Substance | pKd [1] | pKd [2] | pKd [3] | pKd [4]
high molecular weight kininogen (HK) (from UniProt P01042) | 7.82 | 9.10 | 5.64 | –
GPIbα (from UniProt P07359) | – | – | – | 7.28
